# Measured values taken from the supplement of paper PMC12042874.
# ± gives the uncertainty stated by the source.
# Experiment: amyloid nucleation score (Sup35N fusion, yeast selection) (log enrichment); library NNK1; higher = more nucleation; inactive = no reads after selection
# Summary of the method: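 In psi-negative yeast, Sup35N fusions carrying peptides of 20 random codons were induced with 100 μM copper sulfate for 24 hours. The cells then grew 7 days at 30°C on medium lacking adenine and uracil, and plasmid inserts from input and output were Illumina-sequenced, excluding sequences with under 100 input reads. Nucleation score is the DiMSum log enrichment of output over input reads, centred on the mode score of non-aggregating sequences.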
substance,measurement,value
YYYGKVA,amyloid nucleation score,0.227 ± 0.57
